Kd data for 3 substances are collected here from doi:10.1101/711796.

This test concerns the target taxol-stabilized microtubules (UniProt Q6B856). Nature of the test: co-sedimentation.
UniProt Q6B856, sequence (Q6B856 whole entry, looked up): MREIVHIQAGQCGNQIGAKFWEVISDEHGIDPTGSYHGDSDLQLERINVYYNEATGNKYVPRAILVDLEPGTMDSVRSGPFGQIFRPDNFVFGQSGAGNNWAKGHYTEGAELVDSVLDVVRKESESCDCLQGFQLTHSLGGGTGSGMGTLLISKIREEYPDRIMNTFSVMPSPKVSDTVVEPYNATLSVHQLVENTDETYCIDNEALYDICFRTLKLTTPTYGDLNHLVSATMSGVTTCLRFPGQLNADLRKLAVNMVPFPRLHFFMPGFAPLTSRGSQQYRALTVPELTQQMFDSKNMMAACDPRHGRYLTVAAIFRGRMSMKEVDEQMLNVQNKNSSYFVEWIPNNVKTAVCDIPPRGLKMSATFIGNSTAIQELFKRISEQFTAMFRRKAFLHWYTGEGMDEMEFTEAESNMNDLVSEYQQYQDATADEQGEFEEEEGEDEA
The Kd is the concentration at which binding is half-saturated. Read a high Kd as a looser complex. The substance “6xHIS-tagged ZmTAN1 (TANGLED1, maize) (natural protein)” had an equilibrium dissociation constant (Kd) of 1.27 µM.
In turn, HIS-TAN1-GFP (natural protein) showed a dissociation constant (Kd) of 0.59 µM.
Substance HIS-TAN1-GFP-Atto488 (natural protein) displayed a dissociation constant Kd of 0.06 µM.
